This note sets out measurements from US20130052132A1, “Method for Producing Radioactively Labeled Polypeptide” (priority 2011, published 2013).

Details of data set [1]: species or system ddY mice. As to conditions: mouse. The protocol: After 5 minutes, 15 minutes, 30 minutes, 60 minutes, and 120 minutes from the administration, organs were dissected out of the mice (n=5). The weight and radioactivity of each organ were determined, and an accumulation amount (% dose/g) of the polypeptide of Example 1 was calculated from the radioactivity per unit weight. FIG. 1 is a graph showing, by way of example, how the accumulation of the polypeptide of Example 1 in each organ changed over time. Table 2 provides the ratio of pancreas/liver (accumulation amount in pancreas/accumulation amount in liver), the ratio of pancreas/kidney (accumulation amount in pancreas/accumulation amount in kidney), and the ratio of pancreas/blood (accumulation amount in pancreas/accumulation amount in blood) based on the accumulation amount of the polypeptide of Example 1 in each organ. The polypeptide of Example 2 (0.51 μCi) was administered to unanesthetized 6-week-old ddY mice (male, weight: 30 g) by intravenous injection (through the tail vein). After 5 minutes, 15 minutes, 30 minutes, 60 minutes, and 120 minutes from the administration, organs were dissected out of the mice (n=5). The weight and radioactivity of each organ were determined, and an accumulation amount (% dose/g) of the polypeptide of Example 2 was calculated from the radioactivity per unit weight. FIG. 3 is a graph showing, by way of example, how the accumulation of the polypeptide of Example 2 in each organ changed over time. Table 4 provides the ratio of pancreas/liver, the ratio of pancreas/kidney, and the ratio of pancreas/blood based on the accumulation amount of the polypeptide of Example 2 in each organ. A biodistribution experiment was performed by following the same procedure as in Example 1 except that the polypeptide of Example 4 (0.61 μCi) was used in place of the polypeptide of Example 1. FIG. 6 is a graph showing, by way of example, how the accumulation of the polypeptide of Example 4 in each organ changed over time. […]

In data set [2] the target is T1, GLP-1R of the pancreatic β-cells (Mus musculus, UniProt O35659).
T1 construct: the pancreas was dissected out of the mouse; from tissue; host or cells: pancreas sections of MIP-GFP mice after intravenous dosing
T1 sequence (O35659 22-463): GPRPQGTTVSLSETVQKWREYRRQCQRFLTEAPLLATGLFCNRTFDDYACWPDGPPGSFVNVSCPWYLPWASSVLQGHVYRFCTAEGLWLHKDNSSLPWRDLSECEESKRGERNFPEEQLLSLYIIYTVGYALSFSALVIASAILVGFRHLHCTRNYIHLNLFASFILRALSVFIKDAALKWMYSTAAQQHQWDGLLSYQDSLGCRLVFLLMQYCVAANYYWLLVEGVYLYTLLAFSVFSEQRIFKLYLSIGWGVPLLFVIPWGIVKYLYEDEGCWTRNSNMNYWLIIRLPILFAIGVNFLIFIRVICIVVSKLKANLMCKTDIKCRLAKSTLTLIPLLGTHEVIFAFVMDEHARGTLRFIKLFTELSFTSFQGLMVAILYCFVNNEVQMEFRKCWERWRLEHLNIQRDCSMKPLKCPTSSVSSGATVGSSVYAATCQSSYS
Briefly: Two-dimensional imaging analysis of pancreas sections (fluorescence and autoradiography). Type of data set: in vivo, MIP-GFP mouse. The conditions noted are these: MIP-GFP mice. On the procedure: The polypeptide of Example 1 (5 μCi/100 μl) was administered to an unanesthetized MIP-GFP mouse (male, weight: 20 g) by intravenous injection, and after 30 minutes and 60 minutes from the administration, the pancreas was dissected out of the mouse (n=1). Sections were cut out of the dissected pancreas, and each section was placed on a slide glass, covered with a cover glass. The fluorescence and radioactivity (autoradiography) of each section were determined using an image analyzer (trade name: Typhoon 9410, manufactured by GE Health Care Inc.) (exposure time: 18 hours). The exemplary results are shown in lanes 1, 4 and 5 of FIG. 2. […] After 30 minutes from the preliminary administration, the polypeptide of Example 1 (5 μCi/100 μl) was administered to the mice by intravenous injection, and after 30 minutes and 60 minutes from the administration of the polypeptide, the pancreases were dissected out of the mice (n=2). Sections were cut out of the dissected pancreases, and the fluorescence and radioactivity of each section were determined in the same manner as above. […] FIG. 4 illustrates exemplary results of the imaging analysis of pancreas sections of MIP-GFP mice to which the polypeptide of Example 2 was administered. The images on the upper row show a fluorescence signal and those on the lower row show a radioactivity signal of the polypeptide represented by the formula (20). […]

Data set [3] deals with T2, GLP-1R (glucagon-like peptide-1 receptor) of mouse pancreatic islet cells (mouse, UniProt O35659 22-463).
T2 construct: whole, on cells; also called GLP-1R of pancreatic beta-cells
T2 sequence: T1 sequence (O35659 22-463)
Briefly: displacement of [125I]Bolton-Hunter labeled exendin(9-39) from mouse pancreatic islet cells, filter separation, gamma counter. A general note: In a radioligand displacement assay an active substance lowers the binding of a labelled ligand.

* marks the point of attachment. Benzoyl(3-I) = O=C(c1cccc(I)c1)*

For “Example 1 (DLSKQMEEEAVRLFIEWLRNGGPSSGAPPPS; A polypeptide produced in Production Example 1)”, the “deiodization metabolism in vivo” value in data set [1] is “not subjected to deiodization metabolism in vivo”. Further, in data set [1] (in vivo), the “accumulation in the pancreas” value is listed as “exceeding 15 % dose/g” and the “ratio of pancreas/kidney in the accumulation amount” value is listed as at least 1. Further, the “localization of the radioactivity signal in pancreas sections” value in data set [2] (30 and 60 minutes after intravenous injection, compared with GFP signal) is on record as “substantially consistent with that of the GFP signal”. The “radioactivity signal in pancreas sections after blocking the receptors” value in data set [2] (preliminary administration of cold probe non-labeled exendin(9-39) 50 μg 30 minutes before) is given as “hardly detected”.

B1: polypeptide represented by the formula (11) (peptide)
peptide: Ac-DLSK(Benzoyl(3-I))QMEEEAVRLFIEWLRNGGPSSGAPPPS-NH2
SMILES: CC[C@H](C)[C@H](NC(=O)[C@H](Cc1ccccc1)NC(=O)[C@H](CC(C)C)NC(=O)[C@H](CCCNC(=N)N)NC(=O)[C@@H](NC(=O)[C@H](C)NC(=O)[C@H](CCC(=O)O)NC(=O)[C@H](CCC(=O)O)NC(=O)[C@H](CCC(=O)O)NC(=O)[C@H](CCSC)NC(=O)[C@H](CCC(N)=O)NC(=O)[C@H](CCCCNC(=O)c1cccc(I)c1)NC(=O)[C@H](CO)NC(=O)[C@H](CC(C)C)NC(=O)[C@H](CC(=O)O)NC(C)=O)C(C)C)C(=O)N[C@@H](CCC(=O)O)C(=O)N[C@@H](Cc1c[nH]c2ccccc12)C(=O)N[C@@H](CC(C)C)C(=O)N[C@@H](CCCNC(=N)N)C(=O)N[C@@H](CC(N)=O)C(=O)NCC(=O)NCC(=O)N1CCC[C@H]1C(=O)N[C@@H](CO)C(=O)N[C@@H](CO)C(=O)NCC(=O)N[C@@H](C)C(=O)N1CCC[C@H]1C(=O)N1CCC[C@H]1C(=O)N1CCC[C@H]1C(=O)N[C@@H](CO)C(N)=O
notes: Non-radioactive exendin(9-39) derivative with Arg in place of Lys at position 19; Formula (11) itself is a drawing; also called cold probe
The term IC50 denotes the point on the concentration scale where inhibition reaches its midpoint. Low readings indicate greater potency, high ones weaker potency. As for B1, the IC50 in data set [3] was 32.1 nM.
